B1: P2RY14 (parent)
chain: KKIFKSHLKSSRNSTSVKKKSSRN

Variants of: B1
Assay: protein stability index of a GFP-peptide fusion (GPS, HEK-293T) (PSI 1-6); higher = more stable
Settings: c terminus: a fixed tail appended
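Also: lentivirally expressed fusions sorted by FACS into six bins by GFP to DsRed ratio, PSI derived from sequencing read proportions per bin multiplied by bin number.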

Variant | protein stability index
KKIFKSHLKSSRNSSSVKKKSSRN | 4.16
KKIFKSHLKSSRNSPSVKKKSSRN | 4.28
KKIFKSHLKSSRNSDSVKKKSSRN | 4.28
KKIFKSHLKSSRNSYSVKKKSSRN | 3.6
KKIFKSHLKSSRNSFSVKKKSSRN | 3.52
KKIFKSHLKSSRNSESVKKKSSRN | 4.35
KKIFKSHLKSSRNSVSVKKKSSRN | 3.55
KKIFKSHLKSSRNSISVKKKSSRN | 4.04
KKIFKSHLHSSRNSTSVKKKSSRN | 4.41
KKIFKSHLVSSRNSTSVKKKSSRN | 3.39
KKIFKSHLCSSRNSTSVKKKSSRN | 4.37
KKIFKSHLNSSRNSTSVKKKSSRN | 4.5
KKIFKSHLFSSRNSTSVKKKSSRN | 3.57
KKIFKSHLASSRNSTSVKKKSSRN | 4.07
KKIFKSHLGSSRNSTSVKKKSSRN | 4.01
KKIFKSHLTSSRNSTSVKKKSSRN | 3.98
KKIFKSHLISSRNSTSVKKKSSRN | 3.7
KKIFKSHLSSSRNSTSVKKKSSRN | 3.87
KKIFKSHLKSSRNSTNVKKKSSRN | 4.26
KKIFKSHLKSSRNSTIVKKKSSRN | 3.84
KKIFKSHLKSSRNSTYVKKKSSRN | 4.28
KKIFKSHLKSSRNSTVVKKKSSRN | 3.82
KKIFKSHLKSSRNSTPVKKKSSRN | 4.26
KKIFKSHLKSSRNSTSVKKKSERN | 4.06

Variant | protein stability index
KKIFKSHLKSSRNSTSVKKKSTRN | 4.19
KKIFKSHLKSSRNSTSVKKKSHRN | 4.64
KKIFKSHLKSSRNSTSVKKKSFRN | 2.92
KKIFKSHLKSSRNSTSVKKKSARN | 4.01
KKIFKSHLKSSRNSTSVKKKSGRN | 4.32
KKIFKSHLKSSRNSTSVKKKSVRN | 4.33
KKIFKSHLKSSRNSTSVKKKSNRN | 4.2
KKIFKSHLKSSRNNTSVKKKSSRN | 4.44
KKIFKSHLKSSRNLTSVKKKSSRN | 3.88
KKIFKSHLKSSRNPTSVKKKSSRN | 4.43
KKIFKSHLKSSRNGTSVKKKSSRN | 4.22
KKIFKSHLKSSRNFTSVKKKSSRN | 3.84
KKIFKSHLKSSRNETSVKKKSSRN | 4.35
KKIFKSHLKSSRNYTSVKKKSSRN | 4.1
KKIFKSHLKQSRNSTSVKKKSSRN | 3.83
KKIFKSHLKDSRNSTSVKKKSSRN | 4.41
KKIFKSHLKISRNSTSVKKKSSRN | 3.59
KKIFKSHLKCSRNSTSVKKKSSRN | 4.03
KKIFKSHLKNSRNSTSVKKKSSRN | 4.33
KKIFKSHLKGSRNSTSVKKKSSRN | 3.81
KKIFKSHLKHSRNSTSVKKKSSRN | 4.14
KKIFKSHLKYSRNSTSVKKKSSRN | 3.54
KKIFKAHLKSSRNSTSVKKKSSRN | 3.68
KKIFKKHLKSSRNSTSVKKKSSRN | 4.33

Variant | protein stability index
KKIFKEHLKSSRNSTSVKKKSSRN | 4.36
KKIFKVHLKSSRNSTSVKKKSSRN | 3.79
KKIFKWHLKSSRNSTSVKKKSSRN | 3.26
KKIFKSHLKSSRNSTSVKKKSSKN | 4.2
KKIFKSHLKSSRNSTSVKKKSSSN | 4.28
KKIFKSHLKSSRNSTSVKKKSSAN | 4.05
KKIFKSHLKSSRNSTSVKKKSSVN | 4.1
KKIFKSHLKSSRNSTSVKKKSSCN | 3.91
KKIFKSHLKSSRNSTSVKKKSSFN | 3.42
KKIFKSHLKSSRNSTSVKKKSSGN | 3.94
KKIFKSHLKSSRNSTSVKKKSSIN | 3.67
VKIFKSHLKSSRNSTSVKKKSSRN | 3.5
QKIFKSHLKSSRNSTSVKKKSSRN | 4.25
LKIFKSHLKSSRNSTSVKKKSSRN | 3.18
MKIFKSHLKSSRNSTSVKKKSSRN | 3.43
PKIFKSHLKSSRNSTSVKKKSSRN | 4.22
KKIFKSHLKSSRNSTSVKKKSSRA | 4.14
KKIFKSHLKSSRNSTSVKKKSSRT | 4.28
KKIFKSHLKSSRNSTSVKKKSSRP | 3.91
KKIFKSHLKSSRNSTSVKKKSSRE | 3.91
KKIFKSHLKSSRNSTSVKKKSSRM | 3.3
KKIFKSHLKSSRNSTSVKKKSSRF | 3.61
KKIFKSHLKSSRNSTSVKKKSSRD | 4.29
KKIFKSHLKSSRNSTSVKKKSSRL | 4.12

Variant | protein stability index
KKIFKSHLKSSRNSTSVKKKSSRC | 3.55
KKIFKSHLKSSRNSTSVKKKSSRY | 3.46
KKIFKSHLKSSRNSTSVKKKSSRG | 4.57
KKIFKSHLKSSRNSTSVKKMSSRN | 3.48
KKIFKSHLKSSRNSTSVKKESSRN | 3.75
KKIFKSHLKSSRNSTSVKKNSSRN | 3.86
KKIFKSHLKSSRNSTSVKKTSSRN | 3.62
KKIFKSHLKSSRNSTSVKKWSSRN | 3.15
KKIFKSHLKSSRNSTSVKKDSSRN | 3.89
KKIFKSHLKSSRNSTSVKKSSSRN | 4.07
KKIFKSHLKSSRNSTSVKKHSSRN | 3.62
KKIFKSHLKSLRNSTSVKKKSSRN | 4.12
KKIFKSHLKSERNSTSVKKKSSRN | 4.35
KKIFKSHLKSWRNSTSVKKKSSRN | 3.36
KKIFKSHLKSPRNSTSVKKKSSRN | 4.3
KKIFKSHLKSTRNSTSVKKKSSRN | 4.22
KKIYKSHLKSSRNSTSVKKKSSRN | 3.67
KKIRKSHLKSSRNSTSVKKKSSRN | 4.48
KKIMKSHLKSSRNSTSVKKKSSRN | 4.28
KKISKSHLKSSRNSTSVKKKSSRN | 4.72
KKICKSHLKSSRNSTSVKKKSSRN | 4.27
KKIAKSHLKSSRNSTSVKKKSSRN | 4.49
KKILKSHLKSSRNSTSVKKKSSRN | 4
KKIFKSHEKSSRNSTSVKKKSSRN | 4.43

Variant | protein stability index
KKIFKSHGKSSRNSTSVKKKSSRN | 4.49
KKIFKSHMKSSRNSTSVKKKSSRN | 4.11
KKIFKSHFKSSRNSTSVKKKSSRN | 4.04
KKIFKSHDKSSRNSTSVKKKSSRN | 4.58
KKIFKSHSKSSRNSTSVKKKSSRN | 5.01
KKIFKSHQKSSRNSTSVKKKSSRN | 3.49
KKIFKSHNKSSRNSTSVKKKSSRN | 4.31
KKIFKSHRKSSRNSTSVKKKSSRN | 4.14
KKIFKSHWKSSRNSTSVKKKSSRN | 3.95
KKIFCSHLKSSRNSTSVKKKSSRN | 4.05
KKIFWSHLKSSRNSTSVKKKSSRN | 3.45
KKIFISHLKSSRNSTSVKKKSSRN | 3.55
KKIFQSHLKSSRNSTSVKKKSSRN | 4.27
KKIFSSHLKSSRNSTSVKKKSSRN | 4.2
KKIFNSHLKSSRNSTSVKKKSSRN | 4.33
KKIFVSHLKSSRNSTSVKKKSSRN | 3.93
KKIFFSHLKSSRNSTSVKKKSSRN | 4.01
KKIFLSHLKSSRNSTSVKKKSSRN | 3.76
KKIFGSHLKSSRNSTSVKKKSSRN | 4.44
KKIFKSHLKSSRNSTSVKEKSSRN | 3.98
KKIFKSHLKSSRNSTSVKMKSSRN | 3.92
KKIFKSHLKSSRNSTSVKRKSSRN | 4.27
KKIFKSHLKSSRNSTSVKPKSSRN | 3.34
KKIFKSHLKSSRNSTSVKIKSSRN | 3.59

Variant | protein stability index
KKIFKSHLKSSRNSTSVKCKSSRN | 3.34
KKIFKSHLKSSRNSTSVKHKSSRN | 3.99
KKIFKSHLKSSRNSTSVKYKSSRN | 3.17
KKIFKSHLKSSRNSTSVKAKSSRN | 3.98
KKIFKSHLKSSYNSTSVKKKSSRN | 3.39
KKIFKSHLKSSKNSTSVKKKSSRN | 4.03
KKIFKSHLKSSGNSTSVKKKSSRN | 3.87
KKIFKSHLKSSWNSTSVKKKSSRN | 3.74
KKIFKSHLKSSNNSTSVKKKSSRN | 4.17
KKIFKSHLKSSPNSTSVKKKSSRN | 4.15
KKIFKSHLKSSINSTSVKKKSSRN | 3.8
KKIFKSHLKSSRNSTSVKKKWSRN | 3.3
KKIFKSHLKSSRNSTSVKKKFSRN | 3.73
KKIFKSHLKSSRNSTSVKKKVSRN | 4.14
KKIFKSHLKSSRNSTSVKKKDSRN | 4.42
KKIFKSHLKSSRNSTSVKKKMSRN | 3.92
KKIFKSHLKSSRNSTSVKKKASRN | 3.98
KKIFKSHLKSSRNSTSVKKKKSRN | 4.48
KKIFKSHLKSSRNSTSVKKKESRN | 3.8
KKIFKSHLKSSRNSTSVKKKYSRN | 3.38
KKIFKSHLKSSRNSTSVKKKLSRN | 3.77
KKIFKSHLKSSRNSTSDKKKSSRN | 4.25
KKIFKSHLKSSRNSTSEKKKSSRN | 3.99
KKIFKSHLKSSRNSTSQKKKSSRN | 4.06

Variant | protein stability index
KKIFKSHLKSSRNSTSWKKKSSRN | 3.6
KKIFKSHLKSSRNSTSGKKKSSRN | 3.73
KKIFKSHLKSSRNSTSFKKKSSRN | 3.97
KKIFKSHLKSSRNSTSMKKKSSRN | 4.12
KKTFKSHLKSSRNSTSVKKKSSRN | 4.66
KKKFKSHLKSSRNSTSVKKKSSRN | 4.18
KKCFKSHLKSSRNSTSVKKKSSRN | 4.27
KKNFKSHLKSSRNSTSVKKKSSRN | 4.63
KKPFKSHLKSSRNSTSVKKKSSRN | 4.38
KKVFKSHLKSSRNSTSVKKKSSRN | 4.04
KKMFKSHLKSSRNSTSVKKKSSRN | 4.77
KKEFKSHLKSSRNSTSVKKKSSRN | 5.07
KKYFKSHLKSSRNSTSVKKKSSRN | 4.39
KKIFKSHLKSSRNSTSVDKKSSRN | 3.98
KKIFKSHLKSSRNSTSVSKKSSRN | 4.21
KKIFKSHLKSSRNSTSVNKKSSRN | 4.27
KKIFKSHLKSSRNSTSVFKKSSRN | 3.54
KKIFKSHLKSSRNSTSVTKKSSRN | 4.17
KKIFKSHLKSSRNSTSVIKKSSRN | 3.7
KKIFKSHLKSSRNSTSVYKKSSRN | 3.66
KKIFKSHLKSSRNSTSVHKKSSRN | 4.07
KKIFKSVLKSSRNSTSVKKKSSRN | 3.93
KKIFKSDLKSSRNSTSVKKKSSRN | 4.36
KKIFKSTLKSSRNSTSVKKKSSRN | 4.41

Variant | protein stability index
KKIFKSALKSSRNSTSVKKKSSRN | 3.79
KKIFKSCLKSSRNSTSVKKKSSRN | 4.05
KKIFKSILKSSRNSTSVKKKSSRN | 3.72
KKIFKSQLKSSRNSTSVKKKSSRN | 3.67
KKIFKSHLKSSRLSTSVKKKSSRN | 3.3
KKIFKSHLKSSRPSTSVKKKSSRN | 3.45
KKIFKSHLKSSRASTSVKKKSSRN | 4.12
KKIFKSHLKSSRQSTSVKKKSSRN | 4.2
KKIFKSHLKSSRGSTSVKKKSSRN | 4.11
KKIFKSHLKSSRMSTSVKKKSSRN | 3.64
KKIFKSHLKSSRCSTSVKKKSSRN | 3.74
KKIFKSHLKSSRYSTSVKKKSSRN | 3.6
KPIFKSHLKSSRNSTSVKKKSSRN | 3.98
KYIFKSHLKSSRNSTSVKKKSSRN | 3.67
KDIFKSHLKSSRNSTSVKKKSSRN | 4.66
KHIFKSHLKSSRNSTSVKKKSSRN | 4.01
KEIFKSHLKSSRNSTSVKKKSSRN | 4.29
KGIFKSHLKSSRNSTSVKKKSSRN | 4.12
KTIFKSHLKSSRNSTSVKKKSSRN | 4.3
KSIFKSHLKSSRNSTSVKKKSSRN | 4.37

Reference: the supplement of paper PMC10567573
